Where a chain is given by its changes, count along the chain named.
B1: 1245_P02_G04 (IgG1, made in HEK) (antibody, V domains shown)
VH: QVQLQQSGPGLVKPSQTLSLTCAISGDSVSSKSAAWNWIRQSPSRGLEWLGRTYYRSKWSTDYAASVKSRITINPDTSKNQLSLQLNSVTPEDTAVYYCARTWSGYVDVWGQGTLVTVSS
VL: DIQMTQSPPALSASVGDRVTITCRASQDINDWLAWYQHKPGKAPKLLIYDASSLESGVPSRFSGSGSGTEFTLTISSLQPDDFATYYCQQSYSTPQVTFGQGTRLEIK
B2: 1139_P01_E04 (IgG1) (antibody, V domains shown)
VH: QVQLQQSGPGLVKPSQTLSLTCAISGDSVSSNSAAWNWIRQSPSRGLEWLGRTYYRSKWYNDYAVSVRSRITINPDTSKNQFSLQLNSVTPEDTAVYYCARSWNDAFDIWGQGTTVTVSS
VL: DIVMTQSPSTLSASIGDRVTITCRAGQSISTWLAWYQQKPGKAPKLLIYDASSLESGVPLRFSGSGSGTDFTLTISSLQPEDFATYYCQQSYSTPLTFGGGTKVEIK
B3: 1245_P01_G09 (IgG1) (antibody, V domains shown)
VH: QVQLQQSGPGLVKPSQTLSLTCAISGDSVSSNSAAWNWIRQSPSRGLEWLGRTYYGSKWYNEYALSVKSRIIINPDTSKNQFSLQLNSVTPEDTAVYYCARDYYYSMDVWGQGTLVTVSS
VL: B2 VL with D70E, T74A, E81D, L96V, G100Q
B4: 1245_P01_G06 (IgG1) (antibody, V domains shown)
VH: QVQLVESGGGLVKPGGSLRLSCAASGFTFSDYYMSWIRQAPGKGLEWVSYISSSGSTIYYADSVKGRFTISRDNAKNSLYLQMNSLRAEDTAVYYCARHSWNDAFDVWGQGTLVTVSS
VL: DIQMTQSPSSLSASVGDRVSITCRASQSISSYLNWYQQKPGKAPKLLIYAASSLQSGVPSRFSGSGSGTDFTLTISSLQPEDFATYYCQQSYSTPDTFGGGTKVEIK
B5: 1245_P01_E07 (IgG1) (antibody, V domains shown)
VH: B4 VH with H99V, S100D, W101Y, N102A, V107I
VL: DIQMTQSPSSLSASVGDRVTIACRAGQSIGTYLNWYQQKPGKAPKLLIYVASSLQSGVPSRFSGSGSGTEFTLTISSLQPEDFATYYCQQSYSTLLTFGRGTKVEIK
B6: 1252_P01_C08 (IgG1) (antibody, V domains shown)
VH: EVQLLESGGGLVQPGRSLRLSCAASGFTVSSNYMSWVRQAPGKGLEWVSVIYSGGSTYYADSVKGRFTISRDNSKNTLYLQMNSLRAEDTAVYYCASPIELGAFDIWGQGTLVTVSS
VL: SSYELTQPPSVSVAPGKTARITCGGNNIGSQSVHWYQQKPGQAPMLVIYYDSDRPSGIPERFSGSNSGNTATLTISRVEAGDEADYYCQVWDSSSDHVVFGGGTKLTVL

Target: Vδ1 γδ T cell receptor on skin-derived γδ T cells (human)
Test: cell-based or functional assay

Row | Binder | Killing assay (EC50 µg/ml - 2 or 3 donors) [µg/mL] | T cell degranulation (EC50 µg/ml - 3 donors) [µg/mL]
1 | B1 | 0.1 | 0.002
2 | B2 | – | 0.005
3 | B3 | – | 0.001
4 | B4 | – | 0.001
5 | B5 | 0.06 | –
6 | B6 | 0.02 | –
